Experimental data: PMC11011275, “Impact of Protein Nanoparticle Shape on the Immunogenicity of Antimicrobial Glycoconjugate Vaccines” (International Journal of Molecular Sciences, 2024)

Biological target: the molecule itself
Assay: negative-stain transmission electron microscopy; Hcp1cc nanotubes incubated with the reducing agent DTT (nanorings)

B1: Pseudomonas aeruginosa Hemolysin-coregulated protein 1 double mutant G90C + R157C (Hcp1cc) (natural protein)
chain: MAVDMFIKIGDVKGESKDKTHAEEIDVLAWSWGMSQSGSMHMGGGGGAGKVNVQDLSFTKYIDKSTPNLMMACSSGKHYPQAKLTIRKACGENQVEYLIITLKEVLVSSVSTGGSGGEDRLTENVTLNFAQVQVDYQPQKADGAKDGGPVKYGWNICQNVQA
notes: Hemolysin-coregulated protein 1 (Hcp1) of Pseudomonas aeruginosa with G90C and R157C; printed monomer mass 18.3 kD; 6 copies make one ring; without reducing agent the rings stack into disulfide-bonded nanotubes (up to 8-9 rings as purified, up to 14-18 rings after the oligomerization process); also called Hcp1cc nanoring; Hcp1cc nanotube; source: tangential flow filtration
- stoichiometry N: 6 monomers
